Results as given in the supplement of paper PMC10567573.

B1: MATN2 (parent)
chain: VNVPGSFVCQCYSGYALAEDGKRC

Variants of: B1
Experiment: protein stability index of a GFP-peptide fusion (GPS, HEK-293T) (PSI 1-6); higher = more stable
Details: c terminus: a fixed tail appended
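Also: lentivirally expressed fusions sorted by FACS into six bins by GFP to DsRed ratio, PSI derived from sequencing read proportions per bin multiplied by bin number.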

| Variant | protein stability index |
| --- | --- |
| VNVPGSRVCQCYSGYALAEDGKRC [F7R] | 3.21 |
| VNVPGSGVCQCYSGYALAEDGKRC [F7G] | 3.34 |
| VNVPGSDVCQCYSGYALAEDGKRC [F7D] | 2.56 |
| VNVPGSVVCQCYSGYALAEDGKRC [F7V] | 2.19 |
| VNVPGSSVCQCYSGYALAEDGKRC [F7S] | 2.62 |
| VNVPGSQVCQCYSGYALAEDGKRC [F7Q] | 2.14 |
| VNVPGSTVCQCYSGYALAEDGKRC [F7T] | 2.88 |
| VNVPGSHVCQCYSGYALAEDGKRC [F7H] | 3.02 |
| VNVPGSMVCQCYSGYALAEDGKRC [F7M] | 2.7 |
| VNVPGSEVCQCYSGYALAEDGKRC [F7E] | 2.94 |
| VNVPGSCVCQCYSGYALAEDGKRC [F7C] | 2.28 |
| VNVPGSPVCQCYSGYALAEDGKRC [F7P] | 3.13 |
| VNVPGSKVCQCYSGYALAEDGKRC [F7K] | 2.98 |
| VNVPGSNVCQCYSGYALAEDGKRC [F7N] | 1.06 |
| VNVPGSLVCQCYSGYALAEDGKRC [F7L] | 2.07 |
| VNVPGSAVCQCYSGYALAEDGKRC [F7A] | 2.85 |
| VNVPGSIVCQCYSGYALAEDGKRC [F7I] | 1.92 |
| TNVPGSFVCQCYSGYALAEDGKRC [V1T] | 2.36 |
| RNVPGSFVCQCYSGYALAEDGKRC [V1R] | 1.37 |
| LNVPGSFVCQCYSGYALAEDGKRC [V1L] | 2.17 |
| PNVPGSFVCQCYSGYALAEDGKRC [V1P] | 2.86 |
| SNVPGSFVCQCYSGYALAEDGKRC [V1S] | 3.31 |
| HNVPGSFVCQCYSGYALAEDGKRC [V1H] | 1.96 |
| YNVPGSFVCQCYSGYALAEDGKRC [V1Y] | 2.85 |

| Variant | protein stability index |
| --- | --- |
| NNVPGSFVCQCYSGYALAEDGKRC [V1N] | 2.06 |
| FNVPGSFVCQCYSGYALAEDGKRC [V1F] | 3.08 |
| CNVPGSFVCQCYSGYALAEDGKRC [V1C] | 2.15 |
| ENVPGSFVCQCYSGYALAEDGKRC [V1E] | 2.59 |
| QNVPGSFVCQCYSGYALAEDGKRC [V1Q] | 2.01 |
| MNVPGSFVCQCYSGYALAEDGKRC [V1M] | 1.87 |
| DNVPGSFVCQCYSGYALAEDGKRC [V1D] | 2.6 |
| GNVPGSFVCQCYSGYALAEDGKRC [V1G] | 2.6 |
| WNVPGSFVCQCYSGYALAEDGKRC [V1W] | 2.91 |
| KNVPGSFVCQCYSGYALAEDGKRC [V1K] | 1.92 |
| ANVPGSFVCQCYSGYALAEDGKRC [V1A] | 2.14 |
| INVPGSFVCQCYSGYALAEDGKRC [V1I] | 2.43 |
| VNPPGSFVCQCYSGYALAEDGKRC [V3P] | 2.08 |
| VNCPGSFVCQCYSGYALAEDGKRC [V3C] | 1.08 |
| VNQPGSFVCQCYSGYALAEDGKRC [V3Q] | 2.26 |
| VNRPGSFVCQCYSGYALAEDGKRC [V3R] | 2.05 |
| VNMPGSFVCQCYSGYALAEDGKRC [V3M] | 2.21 |
| VNTPGSFVCQCYSGYALAEDGKRC [V3T] | 2.39 |
| VNLPGSFVCQCYSGYALAEDGKRC [V3L] | 2.35 |
| VNSPGSFVCQCYSGYALAEDGKRC [V3S] | 2.16 |
| VNEPGSFVCQCYSGYALAEDGKRC [V3E] | 1.19 |
| VNDPGSFVCQCYSGYALAEDGKRC [V3D] | 2.11 |
| VNYPGSFVCQCYSGYALAEDGKRC [V3Y] | 2.52 |
| VNNPGSFVCQCYSGYALAEDGKRC [V3N] | 1.73 |

| Variant | protein stability index |
| --- | --- |
| VNIPGSFVCQCYSGYALAEDGKRC [V3I] | 1.23 |
| VNKPGSFVCQCYSGYALAEDGKRC [V3K] | 2.82 |
| VNAPGSFVCQCYSGYALAEDGKRC [V3A] | 1.49 |
| VNFPGSFVCQCYSGYALAEDGKRC [V3F] | 1.69 |
| VNHPGSFVCQCYSGYALAEDGKRC [V3H] | 1.81 |
| VNVPVSFVCQCYSGYALAEDGKRC [G5V] | 1.17 |
| VNVPWSFVCQCYSGYALAEDGKRC [G5W] | 4.67 |
| VNVPESFVCQCYSGYALAEDGKRC [G5E] | 1.79 |
| VNVPDSFVCQCYSGYALAEDGKRC [G5D] | 2.06 |
| VNVPISFVCQCYSGYALAEDGKRC [G5I] | 1.45 |
| VNVPMSFVCQCYSGYALAEDGKRC [G5M] | 1.47 |
| VNVPCSFVCQCYSGYALAEDGKRC [G5C] | 2.68 |
| VNVPRSFVCQCYSGYALAEDGKRC [G5R] | 2.17 |
| VNVPPSFVCQCYSGYALAEDGKRC [G5P] | 2.31 |
| VNVPSSFVCQCYSGYALAEDGKRC [G5S] | 1.91 |
| VNVPYSFVCQCYSGYALAEDGKRC [G5Y] | 1.2 |
| VNVPHSFVCQCYSGYALAEDGKRC [G5H] | 2.6 |
| VNVPASFVCQCYSGYALAEDGKRC [G5A] | 1.67 |
| VNVPNSFVCQCYSGYALAEDGKRC [G5N] | 1.75 |
| VNVPLSFVCQCYSGYALAEDGKRC [G5L] | 1.06 |
| VNVPTSFVCQCYSGYALAEDGKRC [G5T] | 1.87 |
| VNVPQSFVCQCYSGYALAEDGKRC [G5Q] | 2.14 |
| VNVDGSFVCQCYSGYALAEDGKRC [P4D] | 1.91 |
| VNVIGSFVCQCYSGYALAEDGKRC [P4I] | 1.04 |

| Variant | protein stability index |
| --- | --- |
| VNVGGSFVCQCYSGYALAEDGKRC [P4G] | 1.86 |
| VNVVGSFVCQCYSGYALAEDGKRC [P4V] | 2.28 |
| VNVAGSFVCQCYSGYALAEDGKRC [P4A] | 1.87 |
| VNVFGSFVCQCYSGYALAEDGKRC [P4F] | 1.36 |
| VNVLGSFVCQCYSGYALAEDGKRC [P4L] | 1.99 |
| VNVMGSFVCQCYSGYALAEDGKRC [P4M] | 2.1 |
| VNVTGSFVCQCYSGYALAEDGKRC [P4T] | 1 |
| VNVKGSFVCQCYSGYALAEDGKRC [P4K] | 1.92 |
| VNVHGSFVCQCYSGYALAEDGKRC [P4H] | 1.47 |
| VNVRGSFVCQCYSGYALAEDGKRC [P4R] | 1.33 |
| VNVSGSFVCQCYSGYALAEDGKRC [P4S] | 1.34 |
| VNVQGSFVCQCYSGYALAEDGKRC [P4Q] | 2.97 |
| VNVCGSFVCQCYSGYALAEDGKRC [P4C] | 2.07 |
| VNVNGSFVCQCYSGYALAEDGKRC [P4N] | 1.94 |
| VNVEGSFVCQCYSGYALAEDGKRC [P4E] | 2.46 |
| VNVPGYFVCQCYSGYALAEDGKRC [S6Y] | 1.87 |
| VNVPGHFVCQCYSGYALAEDGKRC [S6H] | 2.27 |
| VNVPGCFVCQCYSGYALAEDGKRC [S6C] | 2.05 |
| VNVPGQFVCQCYSGYALAEDGKRC [S6Q] | 1.81 |
| VNVPGKFVCQCYSGYALAEDGKRC [S6K] | 1.89 |
| VNVPGDFVCQCYSGYALAEDGKRC [S6D] | 2.97 |
| VNVPGWFVCQCYSGYALAEDGKRC [S6W] | 2.04 |
